Experiment [1] addresses HLA-B*39:01. The experiment can be described thus: IEDB peptide-MHC binding, purified MHC/competitive/fluorescence; filed as Kd, often an IC50 or EC50 that approximates it; ≥ and ≤ were set here for values at or beyond the usual limits of such assays.
Experiment [2] addresses HLA-A*02:03. The experiment is described as above. The conditions noted are these: source organism: Human immunodeficiency virus 1.
Experiment [3] addresses HLA-B*15:17. The description is as above.
In experiment [4] the target is HLA-A*02:06. The description is as above. To be noted: source organism: Human immunodeficiency virus 1.
Experiment [5] concerns the target HLA-A*02:01. The experiment is described as above.
The target in experiment [6] is HLA-A*26:01. Described as above.
Experiment [7] addresses HLA-B*57:01. Described as above.
Experiment [8] concerns the target HLA-B*18:01. Described as above.
Experiment [9] has as its target HLA-A*69:01. The description is as above.
Experiment [10] addresses HLA-B*51:01. Described as above.
For experiment [11], the target named is HLA-B*46:01. Described as above.
The target of experiment [12] is HLA-A*24:03. The experiment in a line: IEDB peptide-MHC binding, purified MHC/direct/fluorescence; filed as Kd, often an IC50 or EC50 that approximates it; ≥ and ≤ were set here for values at or beyond the usual limits of such assays.
Experiment [13] concerns the target HLA-A*02:03. The description is as above.
In experiment [14] the target is HLA-A*68:02. Described as above.
Experiment [15] concerns the target HLA-A*03:01. The experiment is described as above.
The target of experiment [16] is HLA-A*02:12. The description is as above.
Experiment [17] addresses HLA-A*23:01. The experiment is described as above.
The target in experiment [18] is HLA-A*02:16. Described as above.
Experiment [19] concerns the target HLA-A*02:11. The description is as above.
In experiment [20] the target is HLA-A*02:19. The experiment is described as above.
For experiment [21], the target named is HLA-A*11:01. The description is as above.
For experiment [22], the target named is HLA-A*29:02. The experiment is described as above.
The target in experiment [23] is HLA-B*27:03. The experiment can be described thus: IEDB peptide-MHC binding, purified MHC/competitive/fluorescence; filed as Kd, often an IC50 or EC50 that approximates it; ≥ and ≤ were set here for values at or beyond the usual limits of such assays.
Experiment [24] concerns the target HLA-B*39:01. The experiment can be described thus: IEDB peptide-MHC binding, purified MHC/direct/fluorescence; filed as Kd, often an IC50 or EC50 that approximates it; ≥ and ≤ were set here for values at or beyond the usual limits of such assays. The conditions noted are these: source organism: Giardia lamblia ATCC 50803.
Experiment [25] concerns the target HLA-A*26:01. The description is as above. To be noted: source organism: Giardia lamblia ATCC 50803.
Experiment [26] concerns the target HLA-B*57:01. Described as above. To be noted: source organism: Giardia lamblia ATCC 50803.
The target of experiment [27] is HLA-B*18:01. The experiment is described as above. To be noted: source organism: Giardia lamblia ATCC 50803.
Experiment [28] has as its target HLA-A*69:01. The description is as above. To be noted: source organism: Giardia lamblia ATCC 50803.
The target in experiment [29] is HLA-B*15:17. The experiment is described as above. The conditions noted are these: source organism: Giardia lamblia ATCC 50803.
In experiment [30] the target is HLA-B*15:01. Described as above. The conditions noted are these: source organism: Giardia lamblia ATCC 50803.
In experiment [31] the target is HLA-B*27:03. The description is as above. To be noted: source organism: Giardia lamblia ATCC 50803.
In experiment [32] the target is HLA-B*51:01. The experiment is described as above. To be noted: source organism: Giardia lamblia ATCC 50803.
The target of experiment [33] is HLA-B*46:01. The description is as above. The conditions noted are these: source organism: Giardia lamblia ATCC 50803.
For experiment [34], the target named is HLA-A*02:01. The experiment is described as above. The conditions noted are these: source organism: Giardia lamblia ATCC 50803.
Experiment [35] concerns the target HLA-A*02:11. The experiment in a line: IEDB peptide-MHC binding, purified MHC/competitive/fluorescence; filed as Kd, often an IC50 or EC50 that approximates it; ≥ and ≤ were set here for values at or beyond the usual limits of such assays. The conditions noted are these: source organism: Toxoplasma gondii.
In experiment [36] the target is HLA-A*24:03. The experiment is described as above. To be noted: source organism: Orthohantavirus delgaditoense.
The mark [37] stands for this setting: source organism: Human immunodeficiency virus 1.
Where [38] appears, read: source organism: Rickettsia bellii RML369-C.
The mark [39] stands for this setting: source organism: Rickettsia bellii OSU 85-389.
The mark [40] stands for this setting: source organism: Giardia lamblia ATCC 50803.
Where [41] appears, read: source organism: Orthohantavirus delgaditoense.
[42] abbreviates: source organism: Rio Mearim virus.

Drawing on the Immune Epitope Database (IEDB), this text covers Kd for 6 sequences.

A value given as a limit tells only on which side of the number the result lay.

One may read the Kd as the equilibrium constant for the complex coming apart. High values mean a looser complex, low ones a tighter complex. Take LNTVATLY: the Kd in experiment [1] (setting [37]) was at least 20 µM; in experiment [2], 0.291 µM; in experiment [3] (setting [37]) it was 2.75 µM; in experiment [4], 0.0564 µM; in [5] (setting [37]) it was 0.0559 µM.

As for AKIALAVYK, the Kd in experiment [1] (setting [38]), in experiment [6] (setting [38]), in experiment [7] (setting [38]), in experiment [8] (setting [38]), in [9] (setting [38]) and in [3] (setting [38]) was at least 20 µM in each case. In addition, the Kd in experiment [10] (setting [38]), in experiment [11] (setting [38]), in experiment [5] (setting [38]), in [12] (setting [39]), in [13] (setting [39]) and in experiment [14] (setting [39]) was at least 20 µM each time. Moreover, the Kd in experiment [15] (setting [39]), in experiment [16] (setting [39]), in experiment [17] (setting [39]), in experiment [18] (setting [39]), in experiment [19] (setting [39]) and in experiment [20] (setting [39]) was at least 20 µM in each case. Also, the figures for the Kd in experiment [21] (setting [39]) and in experiment [22] (setting [39]) were 0.427 µM and at least 20 µM, respectively.

For the sequence APDGFYPFK, the Kd in experiment [1] (setting [40]), in experiment [6] (setting [40]), in [7] (setting [40]), in [8] (setting [40]), in experiment [9] (setting [40]) and in [3] (setting [40]) was at least 20 µM throughout. In addition, the Kd in experiment [23] (setting [40]), in experiment [10] (setting [40]), in experiment [11] (setting [40]), in [5] (setting [40]), in experiment [12] (setting [40]) and in [13] (setting [40]) was at least 20 µM each time. In addition, the Kd in experiment [14] (setting [40]), in experiment [15] (setting [40]), in [16] (setting [40]), in experiment [17] (setting [40]), in [18] (setting [40]) and in experiment [19] (setting [40]) was at least 20 µM in each case. Also, the dissociation constant Kd was at least 20 µM in experiment [20] (setting [40]), 0.248 µM in experiment [21] (setting [40]) and at least 20 µM in experiment [22] (setting [40]).

Take MHYGYNRAN: the Kd in [12] (setting [40]), in experiment [24], in experiment [13] (setting [40]), in [25], in [14] (setting [40]) and in experiment [26] was at least 20 µM in each case. In addition, the Kd in experiment [27], in experiment [28], in [15] (setting [40]), in experiment [29], in [30] and in experiment [16] (setting [40]) was at least 20 µM throughout. Also, the Kd in experiment [31], in experiment [17] (setting [40]), in experiment [18] (setting [40]), in [32], in [33] and in experiment [19] (setting [40]) was at least 20 µM throughout. The Kd in [34], in [20] (setting [40]) and in experiment [22] (setting [40]) was at least 20 µM in each case.

Consider SVVEENTMA, for which the Kd was 0.183 µM in experiment [35] and at least 20 µM in experiment [5] (source organism: Toxoplasma gondii).

For the sequence DWMERIEDF, the dissociation constant Kd in experiment [36], in experiment [1] (setting [41]), in [6] (setting [41]), in experiment [7] (setting [41]), in experiment [8] (setting [41]) and in experiment [9] (setting [41]) was at least 20 µM each time. Moreover, the dissociation constant Kd in experiment [3] (setting [41]), in [23] (setting [41]), in experiment [10] (setting [41]), in experiment [11] (setting [41]), in experiment [5] (setting [41]) and in [13] (setting [42]) was at least 20 µM in each case. For the same sequence, the Kd in [14] (setting [42]), in experiment [15] (setting [42]), in experiment [16] (setting [42]), in experiment [17] (setting [42]), in [18] (setting [42]) and in experiment [19] (setting [42]) was at least 20 µM each time. Moreover, the dissociation constant (Kd) in [20] (setting [42]) and in experiment [22] (setting [42]) was at least 20 µM each time.
